Entries after “also recorded” stand apart in the source; their conditions may differ.
Legend:
human NK cells = assay: Characterization of human NK cells in tumor-free NSG mice; type: in vivo; details: 10 mg/kg, 24 hours later, blood
Procedure: (§1) Tumor-free NSG mice were inoculated intravenously with 2×10^6 human NK cells that were expanded in vitro as described above. At the same time, mice also received intraperitoneal injections of IL-2 (7.5×10^4) as well as panobinostat (10 mg/kg) or PBS as the solvent control. One day later, blood was collected via eye bleeding, and human NK cells were analyzed by flow cytometry.
as §1, with “(7.5×10^4, Peprotech)” for “(7.5×10^4)”

MICA/B = MICA/B shedding assays in A375 melanoma cells (shed MICA ELISA, MICA/B surface levels by flow cytometry); type: cell-based; details: control and B2M-KO A375 cells, 24 hours, vs isotype control
Procedure: 5×10^4 tumor cells were cultured for 24 hours in 96-wells plates (flat-bottom for adherent cells or U-bottom for suspension cells) in the presence of different concentrations of antibodies, IFNγ, and/or panobinostat (ApexBio, catalog number A8178), as indicated in each figure. Following a 24-hour culture period, plates were centrifuged for 5 minutes at 500× g, and supernatants were collected for analysis of shed MICA using the Human MICA ELISA Kit (Abcam, catalog number ab59569).
Adherent cells were detached with Versene (Gibco, catalog number 15040-066) to preserve the integrity of MICA/B proteins on the cell surface. Fc receptors were blocked using Human TruStain FcX™ (Biolegend, catalog number 422302), and cells were stained with PE or APC-conjugated anti-human MICA/B clone 6D4 (Biolegend, catalog numbers 320906 or 320908, respectively). […] Data were acquired using a BD Fortessa X20 or Beckman Coulter CytoFLEX LX, and analyses were performed using FlowJo V10 software.
5×10^4 tumor cells were cultured for 24 hours in 96-wells plates (flat-bottom for adherent cells or U-bottom for suspension cells) in the presence of different concentrations of antibodies, IFNγ, and/or panobinostat (ApexBio, catalog number A8178), as indicated in each figure. […]

A375 melanoma cells = assay: Long-term NK cell-mediated killing assay (image cytometry of GFP+ tumor cells); type: cell-based; details: mAb 20 μg/ml pretreatment 24 hours, human NK cells, IL-2 300 U/ml, 72-hour period
Procedure: (§2) For long-term NK cell-mediated killing assays, GFP^+ control and B2M-KO A375 cells were pretreated for 24 hours with MICA/B or isotype control mAbs (20 μg/ml) in tissue culture media. Subsequently, tumor cells were detached with Versene, washed with PBS, and plated in black-wall 96-well plates (Corning™, catalog number 3603) at a density of 5×10^3 cells per well. Human NK cells were added 1-2 hours later at different effector to target ratios as indicated in the figures, and IL-2 (300 U/ml) was added to support NK cell survival. The number of GFP^+ tumor cells was tracked over time using a Celigo Image Cytometer (Nexcelom Bioscience, Lawrence, USA), as reported previously.^40
as §2, with “U/ml, BD Biosciences)” for “U/ml)”, “previously (33).” for “previously.^40”

Cc1[nH]c2ccccc2c1CCNCc1ccc(/C=C/C(=O)NO)cc1 [panobinostat]
impact on human NK cells transferred to NSG mice (circulating NK cells, CD16a or NKG2D positive NK cells) (human NK cells): did not negatively impact human NK cells; also recorded: did not inhibit reconstitution of NSG mice with human NK cells

B1: 7C6-hIgG1: MICA/B α3 domain specific mAb, clone 7C6 with human IgG1 Fc (antibody, V domains shown)
VH: QIQLVQSGPELKKPGETVKVSCKASGYMFTNYAMNWVKQAPEKGLKWMGWINTHTGDPTYADDFKGRIAFSLETSASTAYLQINNLKNEDTATYFCVRTYGNYAMDYWGQGTSVTVSS
VL: DIQMTQTTSSLSASLGDRVTISCSASQDISNYLNWYQQKPDGTVKLLIYDTSILHLGVPSRFSGSGSGTDYSLTISNLEPEDIATYYCQQYSKFPRTFGGGTTLEIK
MICA shedding (shed MICA, sandwich ELISA) (MICA/B): inhibited MICA shedding
surface levels of MICA/B (flow cytometry) (MICA/B): increased surface levels of MICA/B
efficacy in NK cell-mediated killing, B2M-KO vs control A375 cells (A375 melanoma cells): substantially more effective against B2M-KO compared to control A375 melanoma cells

From patent US20220363766A1, “COMPOSITIONS AND METHODS FOR TREATING CYTOTOXIC T CELL RESISTANT TUMORS” (Dana-Farber Cancer Institute, Inc., priority 2019, published 2022)
